# Paper PMC9401620
# T1: RBM46 (mouse, UniProt P86049 1-533)
# T1 sequence: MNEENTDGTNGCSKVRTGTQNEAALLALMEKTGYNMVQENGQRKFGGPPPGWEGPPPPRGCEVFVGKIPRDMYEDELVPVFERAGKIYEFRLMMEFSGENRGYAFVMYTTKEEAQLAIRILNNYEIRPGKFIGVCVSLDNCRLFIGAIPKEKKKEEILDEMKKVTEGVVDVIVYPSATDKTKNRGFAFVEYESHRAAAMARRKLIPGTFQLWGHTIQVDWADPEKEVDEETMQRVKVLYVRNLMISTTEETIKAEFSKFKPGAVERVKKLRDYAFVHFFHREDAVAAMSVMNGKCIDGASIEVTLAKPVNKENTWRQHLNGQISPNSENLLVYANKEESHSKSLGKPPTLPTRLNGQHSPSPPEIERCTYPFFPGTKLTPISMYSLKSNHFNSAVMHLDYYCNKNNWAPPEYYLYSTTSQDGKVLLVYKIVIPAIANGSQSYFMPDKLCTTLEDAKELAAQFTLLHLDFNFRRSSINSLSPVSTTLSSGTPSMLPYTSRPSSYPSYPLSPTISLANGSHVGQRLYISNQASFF
# B1: Ccna2 3'UTR RNA probe (ssRNA)
# RNA: UUGUGAAACUAAAACCCGAC
# B2: RNA probe without RBM46-binding motif (ssRNA)
# RNA: UGUUUGAAACAGGAGUCGCU
# Target: T1, RBM46
# Test: EMSA
binder,measurement,value
B1,binding result,binds
B2,binding result,no binding
